Reference: patent US20030092095

What was measured:
[1] = molecular target: histone H4 (free histones acid-extracted from human cancer cells A549 or U2OS), P62805
[2] = molecular target: histone H1 (free histones acid-extracted from human cancer cells A549 or U2OS), P07305
[3] = molecular target: histone H3 (free histones acid-extracted from human cancer cells A549 or U2OS), P68431
[4] = molecular target: H3 N terminus 1-20 residue peptide acetylated on K9 and K14, P68431
[5] = molecular target: H3 N terminus 1-20 residue peptide (non-acetylated), P68431
[6] = molecular target: T1, GST-RIZ332 (GST fusion of human RIZ1 residues 1-332)
T1 chain: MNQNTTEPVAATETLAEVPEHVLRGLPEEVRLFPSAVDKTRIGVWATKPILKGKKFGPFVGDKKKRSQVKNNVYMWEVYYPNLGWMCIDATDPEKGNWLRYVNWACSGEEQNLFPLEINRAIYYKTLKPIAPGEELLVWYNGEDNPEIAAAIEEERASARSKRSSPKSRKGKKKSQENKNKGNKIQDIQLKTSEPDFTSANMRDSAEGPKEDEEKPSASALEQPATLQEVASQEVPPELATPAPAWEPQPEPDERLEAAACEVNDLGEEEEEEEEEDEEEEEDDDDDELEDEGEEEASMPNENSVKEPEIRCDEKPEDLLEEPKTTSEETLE

Chain of histone H1 (free histones acid-extracted from human cancer cells A549 or U2OS), P07305 (P07305 whole entry, looked up): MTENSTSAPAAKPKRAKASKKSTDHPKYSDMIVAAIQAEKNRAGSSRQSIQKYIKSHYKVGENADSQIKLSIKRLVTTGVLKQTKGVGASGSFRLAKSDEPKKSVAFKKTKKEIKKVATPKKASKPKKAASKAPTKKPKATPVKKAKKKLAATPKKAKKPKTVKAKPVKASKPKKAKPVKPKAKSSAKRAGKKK

Protein	histone methyltransferase activity in vitro (3H-SAM, SDS-PAGE, fluorography) [1]	other results
GST-RIZ332 (GST fusion of human RIZ1 residues 1-332) (protein) MNQNTTEPVAATETLAEVPEHVLRGLPEEVRLFPSAVDKTRIGVWATKPILKGKKFGPFVGDKKKRSQVKNNVYMWEVYYPNLGWMCIDATDPEKGNWLRYVNWACSGEEQNLFPLEINRAIYYKTLKPIAPGEELLVWYNGEDNPEIAAAIEEERASARSKRSSPKSRKGKKKSQENKNKGNKIQDIQLKTSEPDFTSANMRDSAEGPKEDEEKPSASALEQPATLQEVASQEVPPELATPAPAWEPQPEPDERLEAAACEVNDLGEEEEEEEEEDEEEEEDDDDDELEDEGEEEASMPNENSVKEPEIRCDEKPEDLLEEPKTTSEETLE	A GST fusion protein expressing the N-terminal 332-residue peptide showed similar activities to the N-terminal 200-residue peptide in methylating H4	–
GST-RIZ161 (GST fusion of human RIZ1 residues 1-161) (protein) MNQNTTEPVAATETLAEVPEHVLRGLPEEVRLFPSAVDKTRIGVWATKPILKGKKFGPFVGDKKKRSQVKNNVYMWEVYYPNLGWMCIDATDPEKGNWLRYVNWACSGEEQNLFPLEINRAIYYKTLKPIAPGEELLVWYNGEDNPEIAAAIEEERASARS	GST alone or a protein consisting of residues 1-161 lacked HMT activity	–
GST-RIZ200 (GST fusion of human RIZ1 residues 1-200) (protein) MNQNTTEPVAATETLAEVPEHVLRGLPEEVRLFPSAVDKTRIGVWATKPILKGKKFGPFVGDKKKRSQVKNNVYMWEVYYPNLGWMCIDATDPEKGNWLRYVNWACSGEEQNLFPLEINRAIYYKTLKPIAPGEELLVWYNGEDNPEIAAAIEEERASARSKRSSPKSRKGKKKSQENKNKGNKIQDIQLKTSEPDFTSA	Specific labeling of histone H4 was observed in the presence of purified GST product consisting of residues 1-200 of RIZ1	–
GST-RIZ200 point mutant I188V (protein) MNQNTTEPVAATETLAEVPEHVLRGLPEEVRLFPSAVDKTRIGVWATKPILKGKKFGPFVGDKKKRSQVKNNVYMWEVYYPNLGWMCIDATDPEKGNWLRYVNWACSGEEQNLFPLEINRAIYYKTLKPIAPGEELLVWYNGEDNPEIAAAIEEERASARSKRSSPKSRKGKKKSQENKNKGNKIQDVQLKTSEPDFTSA	missense mutations found in tumors, C106Y, I188V, and A159V, abolished HMT activity	–
GST-RIZ200 point mutant C106Y (protein) MNQNTTEPVAATETLAEVPEHVLRGLPEEVRLFPSAVDKTRIGVWATKPILKGKKFGPFVGDKKKRSQVKNNVYMWEVYYPNLGWMCIDATDPEKGNWLRYVNWAYSGEEQNLFPLEINRAIYYKTLKPIAPGEELLVWYNGEDNPEIAAAIEEERASARSKRSSPKSRKGKKKSQENKNKGNKIQDIQLKTSEPDFTSA	missense mutations found in tumors, C106Y, I188V, and A159V, abolished HMT activity	–
GST-RIZ200 point mutant A159V (protein) MNQNTTEPVAATETLAEVPEHVLRGLPEEVRLFPSAVDKTRIGVWATKPILKGKKFGPFVGDKKKRSQVKNNVYMWEVYYPNLGWMCIDATDPEKGNWLRYVNWACSGEEQNLFPLEINRAIYYKTLKPIAPGEELLVWYNGEDNPEIAAAIEEERASVRSKRSSPKSRKGKKKSQENKNKGNKIQDIQLKTSEPDFTSA	missense mutations found in tumors, C106Y, I188V, and A159V, abolished HMT activity	–
full length RIZ1 protein expressed in mammalian cells from adenovirus AdRIZ1 (protein) MNQNTTEPVAATETLAEVPEHVLRGLPEEVRLFPSAVDKTRIGVWATKPILKGKKFGPFVGDKKKRSQVKNNVYMWEVYYPNLGWMCIDATDPEKGNWLRYVNWACSGEEQNLFPLEINRAIYYKTLKPIAPGEELLVWYNGEDNPEIAAAIEEERASARSKRSSPKSRKGKKKSQENKNKGNKIQDIQLKTSEPDFTSANMRDSAEGPKEDEEKPSASALEQPATLQEVASQEVPPELATPAPAWEPQPEPDERLEAAACEVNDLGEEEEEEEEEDEEEEEDDDDDELEDEGEEEASMPNENSVKEPEIRCDEKPEDLLEEPKTTSEETLEDCSEVTPAMQIPRTKEEANGDVFETFMFPCQHCERKFTTKQGLERHMHIHISTVNHAFKCKYCGKAFGTQINRRRHERRHEAGLKRKPSQTLQPSEDLADGKASGENVASKDDSSPPSLGPDCLIMNSEKASQDTINSSVVEENGEVKELHPCKYCKKVFGTHTNMRRHQRRVHERHLIPKGVRRKGGLEEPQPPAEQAQATQNVYVPSTEPEEEGEADDVYIMDISSNISENLNYYIDGKIQTNNNTSNCDVIEMESASADLYGINCLLTPVTVEITQNIKTTQVPVTEDLPKEPLGSTNSEAKKRRTASPPALPKIKAETDSDPMVPSCSLSLPLSISTTEAVSFHKEKSVYLSSKLKQLLQTQDKLTPAGISATEIAKLGPVCVSAPASMLPVTSSRFKRRTSSPPSSPQHSPALRDFGKPSDGKAAWTDAGLTSKKSKLESHSDSPAWSLSGRDERETVSPPCFDEYKMSKEWTASSAFSSVCNQQPLDLSSGVKQKAEGTGKTPVQWESVLDLSVHKKHCSDSEGKEFKESHSVQPTCSAVKKRKPTTCMLQKVLLNEYNGIDLPVENPADGTRSPSPCKSLEAQPDPDLGPGSGFPAPTVESTPDVCPSSPALQTPSLSSGQLPPLLIPTDPSSPPPCPPVLTVATPPPPLLPTVPLPAPSSSASPHPCPSPLSNATAQSPLPILSPTVSPSPSPIPPVEPLMSAASPGPPTLSSSSSSSSSSSSFSSSSSSSSPSPPPLSAISSVVSSGDNLEASLPMISFKQEELENEGLKPREEPQSAAEQDVVVQETFNKNFVCNVCESPFLSIKDLTKHLSIHAEEWPFKCEFCVQLFKDKTDLSEHRFLLHGVGNIFVCSVCKKEFAFLCNLQQHQRDLHPDKVCTHHEFESGTLRPQNFTDPSKAHVEHMQSLPEDPLETSKEEEELNDSSEELYTTIKIMASGIKTKDPDVRLGLNQHYPSFKPPPFQYHHRNPMGIGVTATNFTTHNIPQTFTTAIRCTKCGKGVDNMPELHKHILACASASDKKRYTPKKNPVPLKQTVQPKNGVVVLDNSGKNAFRRMGQPKRLNFSVELSKMSSNKLKLNALKKKNQLVQKAILQKNKSAKQKADLKNACESSSHICPYCNREFTYIGSLNKHAAFSCPKKPLSPPKKKVSHSSKKGGHSSPASSDKNSNSNHRRRTADAEIKMQSMQTPLGKTRARSSGPTQVPLPSSSFRSKQNVKFAASVKSKKPSSSSLRNSSPIRMAKITHVEGKKPKAVAKNHSAQLSSKTSRSLHVRVQKSKAVLQSKSTLASKKRTDRFNIKSRERSGGPVTRSLQLAAAADLSENKREDGSAKQELKDFSYSLRLASRCSPPAAPYITRQYRKVKAPAAAQFQGPFFKE	–	histone methyltransferase activity of RIZ1 immunoprecipitates on free histones [2]: Immunoprecipitated products by RIZ1 serum from RIZ1-expressing extracts caused methylation of H1, H3, and H4; histone methyltransferase activity of RIZ1 immunoprecipitates on free histones [1]: Immunoprecipitated products by RIZ1 serum from RIZ1-expressing extracts caused methylation of H1, H3, and H4; histone methyltransferase activity of RIZ1 immunoprecipitates on free histones [3]: Immunoprecipitated products by RIZ1 serum from RIZ1-expressing extracts caused methylation of H1, H3, and H4; in vitro peptide methylation by immunoprecipitated RIZ1 [4]: a peptide containing acetylated K9 and K14 was not methylated; in vitro peptide methylation by RIZ1, then HPLC purification and sequencing (H1 peptide (aa 15-37)): A H1 peptide (aa 15-37) was methylated by RIZ1 in vitro ... lysine 25 was methylated by RIZ1; in vitro peptide methylation by immunoprecipitated RIZ1, then peptide sequencing [5]: A peptide consisting the N-terminal 1-20 residues of H3 was indeed methylated in vitro by immunoprecipitated RIZ1 protein ... A single radioactive peak at lysine 9 was observed
GSTRIZPBD, GST-hRIZ1(1514-1680) (GST fusion of the PR-binding domain of human RIZ1) (protein) HRRRTADAEIKMQSMQTPLGKTRARSSGPTQVPLPSSSFRSKQNVKFAASVKSKKPSSSSLRNSSPIRMAKITHVEGKKPKAVAKNHSAQLSSKTSRSLHVRVQKSKAVLQSKSTLASKKRTDRFNIKSRERSGGPVTRSLQLAAAADLSENKREDGSAKQELKDFS	GSTRIZPBD protein alone showed HMT activity, specifically on H4	histone methyltransferase activity in vitro with both proteins present [6]: A synergistic enhancement (more than additive effects) of HMT activity was observed when GSTRIZ322 and GSTRIZPBD were both present in HMT reactions
